These are literature values, as cited in PMC7855784.

By Kd is commonly meant the constant that tells how readily two partners part at equilibrium.

In the data set the target is HER2 ECD (Homo sapiens) (UniProt P04626).

Regarding PEPD (from UniProt P12955), the Kd was 7.3 nM.
